This is an account of results in PMC3095670.

For series [1], the target named is T1, DNA polymerase beta, intact (rat, UniProt P06766 1-335). Kind of series: fluorescence titration.
The target of series [2] is T2, DNA polymerase beta 8-kDa domain (isolated) (rat, UniProt P06766 1-87). Kind of series: fluorescence titration.
In series [3] the target is T1, DNA polymerase beta, intact. Kind of series: fluorescence titration. The source holds these as a separate data set.
In series [4] the target is T2, DNA polymerase beta 8-kDa domain …. Kind of series: FRET.

Where two headings read alike, the source gives them in different places.

B1: dεA(pεA)13 (ssDNA)
DNA: AAAAAAAAAAAAAA
modifications: all adenines 1,N6-etheno-A (chloroacetaldehyde)
B1: in series [1], the binding result is on record as “binds”.

B2: dεA(pεA)9 (ssDNA)
DNA: AAAAAAAAAA
modifications: all adenines 1,N6-etheno-A (chloroacetaldehyde)
Take B2: the binding result in series [2] is on record as “binds”.

B3: dεA(pεA)19 (ssDNA)
DNA: AAAAAAAAAAAAAAAAAAAA
modifications: all adenines 1,N6-etheno-A (chloroacetaldehyde)
Regarding B3, the binding result in series [3] was “binds”.

B4: 5'-Fl-dT(pT)19-CP-3' (ssDNA)
DNA: TTTTTTTTTTTTTTTTTTTT
Regarding B4, the binding result in series [4] is recorded as “binds”.
